{"source": "paper PMC8244865", "about": "“Recruitment of phospholipase Cγ1 to the non-structural membrane protein pK15 of Kaposi Sarcoma-associated herpesvirus promotes its Src-dependent phosphorylation” (PLoS Pathogens, 2021)", "key": {"[1]": {"test_system": "full-length PLCγ1 R586L or R694L", "assay": "GST-pulldown, full-length PLCγ1 R586L or R694L", "format": "binding", "settings": "phosphorylated; full-length PLCγ1, HEK 293T; versus WT", "method": "(§1) Fig 3 Contribution of individual PLCγ1 SH2 domains to the interaction with phosphorylated pK15. The pK15 CT fused to GST, its Y^481F mutant, or GST alone were bound to glutathione beads, phosphorylated in vitro (+) or left unphosphorylated (-), and a GST pulldown was performed 32h after transfection into HEK-293T cells of expression vectors for S-tagged full-length PLCγ1 (FL) (A) or PLCγ1 SA (B) containing the indicated mutations. (C) pK15 CT WT, its Y^481F mutant or GST were bound to glutathione beads, phosphorylated in vitro (+) or left unphosphorylated (-), and used for a GST pulldown assay 32h after transfecting HEK 293T cells with expression vectors for S-tagged individual PLCγ1 nSH2 or cSH2 domains. […]\n(§2) HEK293T cells were washed once with cold PBS 30 hours after transfection, lysed in IP buffer (50 mM Tris pH7.6, 60 mM NaCl, 6.25 mM EDTA, 1% (v/v) glycerol, 0.04% (v/v) NP-40) on ice for 30 minutes, sonicated shortly and cleared by centrifugation for 10 minutes at 20.000g, 4°C. […] Beads were then washed 5 times in 500 μl IP buffer (or for purified proteins IP buffer with 200 mM NaCl), suspended in 10 μl of 5x Laemmli sample buffer (60 mM Tris pH6.8, 24% (v/v) glycerol, 2% (v/v) SDS, 5% (v/v) β-mercaptoethanol, 0.01% Bromphenol Blue) and analysed by western blot."}, "[2]": {"test_system": "PLCγ1 cSH2 domain", "assay": "AlphaLISA, isolated PLCγ1 cSH2", "format": "binding", "settings": "phosphorylated, 300 nM each protein, domain tested individually", "method": "(§3) Fig 4 The PLCγ1 cSH2 domain is required for the binding of PLCγ1 to phosphorylated pK15 in vitro and may serve as a dominant-negative inhibitor. GST-fused pK15 cytoplasmic tail WT (A), or its truncated mutant N2 [51] (B), were phosphorylated in vitro by 2xStrep-Src and an AlphaLISA was performed with the indicated His-tagged fragments of PLCγ1. Mean and standard deviation from at least two independent experiments with two technical replicates each are depicted. GST fusion proteins of the N1 (C) or N2 (D) truncation mutants of the pK15 cytoplasmic tail were phosphorylated in vitro by 2xStrep-Src and their interaction with recombinant purified PLCγ1 tSH2 (tandem SH2) or SA (γ-specific array) domains was measured by AlphaLISA in the presence of increasing concentrations (300 nM, 600 nM, 900 nM, 1200 nM) of the purified PLCγ1 cSH2. […] After 48h lysates were collected and analysed by Western blot using an antibody to PLCγ1 pY^783 to assess the level of PLCγ1 phosphorylation. (F) The intensities of the pPLCγ1 bands shown in panel E were quantified by densitometry, normalized to the values obtained with the empty vector (EV) in the presence of pK15, and plotted as relative values. […]\n(§4) His-tagged PLCγ1 (SA, tSH2 or the isolated SH2 domains) was incubated at room temperature with GST-tagged K15P or its mutants for 1 hour. […] Emission at 615 nm was detected on BioTek Synergy 2 plate reader."}, "[3]": {"test_system": "full length PLCγ1 R586L+R694L", "assay": "GST-pulldown, full-length PLCγ1 double mutant", "settings": "phosphorylated; binding eliminated for SA domain but not full length", "method": "as §1, §2"}, "[4]": {"test_system": "PLCγ1 R^586L and R^694L double mutant (DM) (SA and tSH2)", "assay": "AlphaLISA, SA and tSH2 double mutant", "format": "binding", "settings": "phosphorylated; 300 nM each protein", "method": "as §3, §4"}}}
{"molecule": "pK15 CT^WT: pK15 cytoplasmic tail fused to GST at its N-terminal end, phosphorylated in vitro by Src (protein, tyrosine-phosphorylated in vitro by Src; sites not stated for this construct; left off: GST, N-terminal, kept) SQLLNEVELQEVNRDPPNVFGYASILVSGAEESREPSPQPDQSGMSILRVDGGSAFRIDTAQAATQPTDDLYEEVLFPRN", "values": [{"measurement": "binding of mutants (GST-pulldown)", "setting": "[1]", "value": "moderately reduced binding"}, {"measurement": "interaction (AlphaLISA)", "setting": "[2]", "value": "only the PLCγ1 cSH2 domain (and not the nSH2 domain) interacted"}, {"measurement": "interaction (AlphaLISA)", "setting": "[2]; listed as pK15 CT^N2", "value": "did interact with the tSH2 and cSH2 domains"}, {"measurement": "binding of double mutant (GST-pulldown)", "setting": "[3]", "value": "not to full length PLCγ1"}, {"measurement": "interaction (AlphaLISA)", "setting": "[4]", "value": "failed to interact"}]}
